In the nanobody polyreactivity screen of Harvey et al. (2022):

Experiment: yeast display, Sf9 membrane polyspecificity reagent, FACS + sequencing; frameworks hold sequencing errors
Procedure, shortened: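 After 36–48 hours of galactose induction, yeast (Saccharomyces cerevisiae BJ5465) displaying a synthetic nanobody library were stained at 4 °C for 1 hour with 10% biotinylated, detergent-solubilized Sf9 membrane reagent. Streptavidin microbeads enriched the stained cells before FACS sorting into low and high (top ~1%) gates on anti-HA and streptavidin fluorescence. Each clone's polyreactivity label reflects its gate of origin.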

Row | Sequence | polyreactivity (PSR sort gate)
1 | QVLLQESGGGLVQAGGSLRLSCAASGNIFSAGGMGWYRQAPVNERELVAGIGTGTSTNYADSVKGRFTISRDNSKNTVYLQMNSMKPEDTAVYYCAAAYYSGLSHWYWGQGTQVTVSS | low polyreactivity
2 | QVQLVESGGGLVQAGGSDRLSCAASGNTFYPNAMGWYRPAPGKERELVAAITTSGGTTYYADSVKGRFTISRDNAKNTVYLQMNSLKPEDTAVYYCAAYWSRDKYDYWGQGTQVTVSS | low polyreactivity
3 | HVQLVESGGGLVQAGGRLRLSCAASGRNFVENAIGWYRQAPGKEWEFVAAISGGGSTDYADSVKGRFTISRDNAKNTVYLQMNSLKPEDTAVYYCNARQVFTTAGREMDYWGQGTQVTVSS | low polyreactivity
4 | QVQLVESGGGLVQAGGSLRLSCAASGNTLRYYAMGWYRQAPGKERELVAAITRRGGSTYADSVKGRFTISRDNAKNTVYLQMNSLKPEDTAVYYCNRVLYDHSFPYNRGYDYWGQGTQVTVSS | high polyreactivity
5 | QVQLVESGGGFVQAGGSLRLRCAASGRTFGWYAMGWYRQAPGKERELVAAITWRGGSTYYADSVKGRFTISRDNAKNTVYLQMNSLKPEDTAVYYCAAAAEKRSYYWGQGTQVTVSS | high polyreactivity
6 | QVQLVESGGGLVQAGGSLRLSCAASGSIFKYYTMGWYRQAPGKERELVARISTRGDSTYYADSVKGRFTISRDNAKNTVYLQMNSLKPEDTAVYYCNARPGSRRSSTWGMDYWGQGTQVTVSS | high polyreactivity
7 | QVQLVESGGGSVQAGGSLRLSCAASGSTFRYYAMGWYRQAPGKERELVARITSRAGRTYYADSVKGRFTISRDNAKNTVYLQMNSLKPEDTAVYYCNTRDFSGYVHALSLYDYWGQGTQVTVSS | high polyreactivity
8 | QVQLVESGGGLVQAGGSLRLSCAASGSISYEFAMGWYRQAPGKERELVASIDSDGAGTYYADSVKGRFTISRDNAKNTVYLQMNSLKPEDTAVYYGNAEWYYPYYYSRMDYWGQGTQVTVSS | low polyreactivity
9 | QVQLVESGGGLVQAGGSLRVSCAASGNIFVYNAMGWYRQAPGKERELVAAIDSGGSTYYADSVKGRFTISRDNAKNTVYLQMNSLKPEDTAVYYCAADYYSTYRTIYYYWGQGTQVTVSS | low polyreactivity
10 | QVQLVESGGGLVQAGGSLRLSCAASGRIFRNYAMGWYRQAPGKERELVPAITRGGSTYYAVSVKGRFSISRDNAKNTVYLQMNSLKPEDNAVYYCNKAWPYSHPVQYHRSRSYDYWGQGTQVTVSS | high polyreactivity
11 | QVQLVESGGCLVQAGGSLRLSCAASGRTFYTYAMGWYRQAPGQERELVAAITYRGGNTYYADSVKGRFTISRDNAKNTVYLQMNSLKREDTAVYYCAATYKRRSGQSFDYWGQGTQVTVSS | high polyreactivity
12 | QVQIVESGGGLVQAGGSRRLSCAASGIIFYVNVMGWYRQAPGKERELVASNDGSGDTTYYADSVKGRFTISRDNAKNTVYLQMNSLKPEDTAVYYCAADKYSFWSYYPDDDYIYDYWGQGNQVTVSS | low polyreactivity
13 | QVQLVESGGGLVQAGGSLRLSCAASGRTFKIHAMGWYRQATGKERELVAAISTSGGSTYYADSVKGRLTISRDNAKNTVYLQMNSLKPEDTAVYYCNAPVFRVGRPEYDYWGQGTQVTVSS | high polyreactivity
14 | QVQLVESGGGLVQAGGSLRLSCAASGSIFKIYAMGWYRQAPGKARELVATISINGGSTYYADSVKGRFTISRDNAKNTVYLQMNSLKPEDTAVYDCNKVNEYITSQDDYGGQGTQVTVSS | low polyreactivity
15 | QVQLVESGGGLVQAGGCLRLSCAASGLIFIKYTMGWYRQAPGKERELVAVISGSGGSTYYADSVKGRFTISRDNAKNTVYLQMNSLKPEDTAVYYCAARSYALGYGGGYWGQGTQVTVSS | high polyreactivity
16 | QVQLVESGGGLDQAGGSLRLSCAASGFIFQRYTLGWYRQAPGKERELVAAITSGGRTYYADSVKGRFTISRDNAKNTVYLQMNSLKPEDTAVYYCNARGRASRHSGYDYWGQGTQVTVSS | high polyreactivity
17 | QVQLVESGGGLVQAGGSLRLSCAASGSTFQRYAMGGSRQAPGKERELVAAITAGGSTYYADSVKGRFTISRDNAKNTVYLQLNSLKPEDTAVYYCNAAWFYRYGYWGQGTQVTVSS | high polyreactivity
18 | QVQLVESGGGLVQAGGSLRLSCAASGSTFGNYAMGWYRQAPGKERELVAAISTSGGSTYYADSVKRRFTISRDNAKNTVYLQMNSLKPEDTAVYYCAKRLVRVRSRAVSDYYWGQGTQVTVSS | high polyreactivity
19 | QVQLVESGGGLVQAGGSLLLSCAASGSTFRYYAMGWYRPAPGKERELVAATTSGGSTYYADSVKGRFTISRDNAKNTVYLQMNSLKPEDTAVYYCAKSISRYFFYRPSAAAYGYDYWGQGTQVTVSS | high polyreactivity
20 | QVQLVESGGGLVQAGGSLRLSCAAYGSTLAGYAMGWYRQAPGKERELVAAIDWTGGSTTYADSVKGRFTISRDNAKNTVYLQMNSLKPEDTAVYYCNVDLGVNGDYWGQGSQVTVSS | low polyreactivity
21 | QVQLVESGGGLVQAGGSLRLSCAASGSIFQSYAMGWYIQAPGKERELVAAISARGGTTNYADSVKGRFTISRDNAKNTVYLQMNSLKPEDTAVYYCAKVYRYGYSKYYYWGQGTQVTVSS | high polyreactivity

Row | Sequence | polyreactivity (PSR sort gate)
22 | QVQLVESGAGLVQAGGSLRLSCAASGRILIIYAMGWYRQAPGKERELVARITYTGGRTYYADSVKGRFTISRDNAKNTVYRQMNSLKPDDTAVYYCATDWSRSDSYSHYDSWVQGTQVTVSS | low polyreactivity
23 | QVQLVESGGGLVQAGGSLRLSCAASGRTFSSYTMGWYRQAPGKERELVASITNNGGSTYYADSVKGRFTISRDNAKNTVYLQMNSLKPEDTAVYYCAVDSRGKLGISGEYGYWGQGTQVTVSS | low polyreactivity
24 | QVQLVESGGGLVQAGGSLRLSCAASGSTFSGYVMGWYRQAPGKERELVAAISWGGSRTYYADSVKGRFTISRDNAKNTVYLQMNSLKPEDTAVYYCNAYTSYGTFFYWAWPYYYWGQGTQVTVSS | high polyreactivity
25 | QVQLVESGGGLVQAGGSLRLSCAASGLTFHRYAMGWYRQAPGKERELVAAINYSGGRTYYADSVKGRFTISRDNAKNTVYLQMNSLKPEDTAVYYCAASLYRRQMDHWGQGTQVTVSS | high polyreactivity
26 | QVQLVESGGGLVQAGGSLRLSCAASGRIFGTNAMGWYRPAPGKERELVADITSGGSTNYADSVKGRFTISRDNAKNTVYLQMNSLKPEDTAVYYCAAVLYSRLYWYRLDYWGQGTQVTVSS | low polyreactivity
27 | QVQLVESGGGLVQAGGSLRLSCAASGSTFTKYAMGWYRQAPGKERELVAAISRSGGGTYYADSVKGRFTISRDNAKNTVYLQMNILKPEDTAVYYCNAALFRGAQFDYWGQGTQVTVSS | high polyreactivity
28 | QVQLVESGGGLVQAGGSLRLSCAASGFTFGPYDMGWYRQAPGTERELVAAITDSSGSTHYADSVKGRFTLSRDNAKNTFYLQMNSLKPEDTAVYYCAADVSSRTTYDYWGQGTQVTVSS | low polyreactivity
29 | QVHLVESGGGLVQAGGSLRLSGAASGLTFSGNAMGWYRQAPGKERELVAAISWNGGRTYYADSVKGRFTISRDNAKNTVYLQMNSLKPEDTAVYYCAAEVRYSTYEDYDYWGQGTEVTVSS | low polyreactivity
30 | QFQLVESGGGLVQAGGSLRLSCAASGSIFGYYAMGWYRQAPGKESELVAAISASGGTTYYADSVKGRFTISRDYAKNTVYLQMNSLKPEDTAVYYCNKLYLKPGRYYYWGQGTQVTVSS | high polyreactivity
31 | QVQLVESGGGLVQAGGTLSLSCAATGRNFYCYAMGWYRQAHGKERELVAAINWSGGTTYYADSVKGRFTISRDNAKNTVYLQMNSLKPEDTAVYYSAADRILEMGYWGQGTQVTVSS | low polyreactivity
32 | QVQLVESGGGLVQAGGSLRLSCAASGRTFVVNAMGWSRQAPGKERELVAAITRRGGITYYADSVKGRFTISRDNAKNTVYLQMNSLKPEDTAVYYCAADRSYYPDTRTTYGYNYWGQGTQVTVSS | low polyreactivity
33 | QVQLVESGGGLVQAGGSLRLSCAASGSIFKQNAMGRYRQAPGKESELVSDITSCGGSTYYADSVKGRFTISRDNAKNTVYLQMNSLKPEDTAVYYCNVVETSLELGWQAFDYWGQGTQVTVSS | low polyreactivity
34 | QVQLVESGGGLVQAGGSLRLSCAASGRTFEGNAMGWYRQAPGKERELDAAITSGGRTNYADSVKGRFTISRDNAKNTVYLQMNSLKPEDTAVYYCAVETRDRSTSFPGQAYDYWGQGSQVTVSS | low polyreactivity
35 | QVQLVESGGGLVQAGGSLRLSCAASGRTFQRNAMGWYRQAPGKERELVAAITSGSRTNYADSVKGRFTISRDNAKNTVFLQMNSLKPEDTAVYYCAADYTWRNNYWGQGTQVTVSS | high polyreactivity
36 | QVQLVESGGGLVQAGCSLRLSCAASGRIFDFYAMGWYRHAPGKERELVAAISWDGSDTYYADSVKGRFTISRDNAKNTVYLQMNSLKPEDTAVYYCAADYYSPSGHEYNYWGQGTQVTVSS | high polyreactivity
37 | QVQLVESGGGLVQAGGSLRLTCAASGSNFWSYDMGWYRQAPGKERELVATITSGDSTYYADSVKGRFTISRDNAKNTVYLQMYSLKPEDTAVYYCAAGTYYRRPYWHRDYDYWGQGTQVTVSS | low polyreactivity
38 | QVQLVESGGGLVQAGGSLRLSCADSGFIIFCYAMGWYRQAPGKERELVAAITSGGSTYYAYSVKGRFTISRDNAKNTVYLQMNSLKPEDTAVYYCAAVRWYGSKRYGYWGQGTQVTVSS | high polyreactivity
39 | KVQLVESGGGLVQAGGSLRLSCAASGGIFYYYAMGWYRQAPGKERELVAAISSGGGTNYADSVKGRFTISRDNAKNTVYLQMNSVKPEDTAVYYCAADQGRDTGYDYWGQGTQVTVSS | low polyreactivity
40 | QVQLVESGGGLVQAGGSLRLSCAASGSIFGANVMGWYRQAPGKERELVAGITGSGGSTYADSVKGRFTISRDNAKNTVYFQMNSLKPEDTAVYYCNADTQFALVADFDYWGQGTQVTVSS | low polyreactivity
41 | QVQLVESGGGLVQAGCSLRLSCAASGRTFITNAMGWYRQAPGKVRELVAAISSGTGGRTYYADSVKGRFTISRDKAKNTVYFQMNSRKPEDTAVYYCAARSTKYYPYGYWGQGTQVTVTS | high polyreactivity
